# Experimental data from article PMC2268108.
# Columns and labels:
# [1] = biological target: canine kidney Na,K-ATPase (αβ protomer), erythrosin-labelled (dog (endogenous in kidney)) (UniProt P50997); assay: time-resolved phosphorescence anisotropy
# [2] = biological target: Na/K pump α1 subunit-CFP fusion; assay: FRET or BRET
stoichiometry N [1],increase of donor fluorescence on acceptor photobleaching [2],Substance
2,–,"canine kidney Na,K-ATPase (αβ protomer), erythrosin-labelled (from UniProt P50997;P06583) (complex)"
–,23.8%,phospholemman-citrineYFP fusion (natural protein)
